The target in this experiment is mouse CEACAM1 on SEB-responsive T cells (mouse), P31809. Put plainly: cell-based or functional assay.

B1: mouse CEACAM1 N-domain Fc fusion protein, P31809 35-142 (Fc fusion, UniProt P31809 35-142, looked up, not shown: a dimerising Fc or GST)
chain: EVTIEAVPPQVAEDNNVLLLVHNLPLALGAFAWYKGNTTAIDKEIARFVPNSNMNFTGQAYSGREIIYSNGSLLFQMITMKDMGVYTLDMTDENYRRTQATVRFHVHP
In turn, B1 displayed a TIM3 up-regulation on SEB-responsive T-cells after in vitro re-stimulation (% Mean Fluorescence) of 29.

Source of the values: US20150225457A1.
